Test results as given in patent publication US20250163162A1.

Biological target: T1, IL10Rα/IL2Rγ receptor (human) (UniProt Q13651)
T1 sequence (looked up) 1: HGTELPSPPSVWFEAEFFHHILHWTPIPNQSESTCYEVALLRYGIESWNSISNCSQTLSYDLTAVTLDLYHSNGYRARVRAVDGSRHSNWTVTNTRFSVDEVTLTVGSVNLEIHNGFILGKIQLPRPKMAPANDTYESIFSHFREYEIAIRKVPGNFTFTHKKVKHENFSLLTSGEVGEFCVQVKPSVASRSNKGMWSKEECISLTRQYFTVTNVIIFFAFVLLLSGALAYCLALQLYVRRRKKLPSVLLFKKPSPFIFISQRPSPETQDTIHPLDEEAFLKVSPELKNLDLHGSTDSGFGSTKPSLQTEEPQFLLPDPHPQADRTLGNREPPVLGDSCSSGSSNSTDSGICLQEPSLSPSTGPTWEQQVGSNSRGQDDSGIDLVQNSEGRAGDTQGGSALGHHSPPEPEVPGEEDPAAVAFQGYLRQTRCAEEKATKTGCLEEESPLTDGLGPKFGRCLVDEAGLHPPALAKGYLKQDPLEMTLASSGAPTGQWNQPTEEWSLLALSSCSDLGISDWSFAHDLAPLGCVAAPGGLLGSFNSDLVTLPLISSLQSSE
T1 sequence (looked up) 2: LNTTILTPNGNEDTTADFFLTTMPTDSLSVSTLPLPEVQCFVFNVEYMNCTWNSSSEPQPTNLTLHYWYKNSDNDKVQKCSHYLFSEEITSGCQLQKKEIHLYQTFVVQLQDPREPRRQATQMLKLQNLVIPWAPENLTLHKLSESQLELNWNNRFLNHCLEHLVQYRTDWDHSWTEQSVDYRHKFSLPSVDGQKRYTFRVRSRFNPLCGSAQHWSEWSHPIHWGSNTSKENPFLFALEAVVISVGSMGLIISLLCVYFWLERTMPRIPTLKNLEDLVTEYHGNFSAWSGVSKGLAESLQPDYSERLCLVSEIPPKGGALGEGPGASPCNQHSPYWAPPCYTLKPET
Assay: cell-based or functional assay

B1: hIL10Ra_VHH14 - hIL2Rg_VHH19, linker GS, tag his (bispecific antibody, not shown: small tags and cut ends)
chain: QVQLQESGGGSVQAGGSLRLSCGASGYTYSSYCMGWFRQVPGKEREGVAVIDSDGSTSYADSVKGRFTISKDNGKNTLYLQMNSLKPEDTAMYYCAADLGHYRPPCGVLYLGMDYWGKGTQVTVSSGSQVQLQESGGGSVQAGGSLRLSCTASGFTFDDREMNWYRQAPGNECELVSTISSDGSTYYADSVKGRFTISQDNAKNTVYLQMDSVKPEDTAVYYCAADFMIAIQAPGAGCWGQGTQVTVSS
Granzyme A secretion, CD8 T cells, at 0 µM: 25200 pg/mL | Granzyme A secretion, CD8 T cells, at 0.0001 µM: 19900 pg/mL | Granzyme A secretion, CD8 T cells, at 0.001 µM: 22700 pg/mL | Granzyme A secretion, CD8 T cells, at 0.01 µM: 25900 pg/mL | Granzyme A secretion, CD8 T cells, at 0.1 µM: 26100 pg/mL | Granzyme A secretion, CD8 T cells, at 1 µM: 27900 pg/mL | Granzyme A secretion, CD8 T cells, at 10 µM: 28600 pg/mL | Granzyme A secretion, CD8 T cells, at 100 µM: 28400 pg/mL | Granzyme B secretion, CD8 T cells, at 0 µM: 77700 pg/mL | Granzyme B secretion, CD8 T cells, at 0.0001 µM: 49200 pg/mL | Granzyme B secretion, CD8 T cells, at 0.001 µM: 49400 pg/mL | Granzyme B secretion, CD8 T cells, at 0.01 µM: 55500 pg/mL | Granzyme B secretion, CD8 T cells, at 0.1 µM: 58000 pg/mL | Granzyme B secretion, CD8 T cells, at 1 µM: 80200 pg/mL | Granzyme B secretion, CD8 T cells, at 10 µM: 87000 pg/mL | Granzyme B secretion, CD8 T cells, at 100 µM: 99900 pg/mL | IFNγ secretion, CD8 T cells, at 0 µM: 122000 pg/mL | IFNγ secretion, CD8 T cells, at 0.0001 µM: 91700 pg/mL | IFNγ secretion, CD8 T cells, at 0.001 µM: 105000 pg/mL | IFNγ secretion, CD8 T cells, at 0.01 µM: 122000 pg/mL | IFNγ secretion, CD8 T cells, at 0.1 µM: 129000 pg/mL | IFNγ secretion, CD8 T cells, at 1 µM: 134000 pg/mL | IFNγ secretion, CD8 T cells, at 10 µM: 143000 pg/mL | IFNγ secretion, CD8 T cells, at 100 µM: 143000 pg/mL | IL-1β secretion, LPS treated monocytes, at 0 µM: 6240 pg/mL | IL-1β secretion, LPS treated monocytes, at 0 µM (LPS only): 6880 pg/mL | IL-1β secretion, LPS treated monocytes, at 0.0001 µM: 5960 pg/mL | IL-1β secretion, LPS treated monocytes, at 0.001 µM: 6270 pg/mL | IL-1β secretion, LPS treated monocytes, at 0.01 µM: 5060 pg/mL | IL-1β secretion, LPS treated monocytes, at 0.1 µM: 6590 pg/mL | IL-1β secretion, LPS treated monocytes, at 1 µM: 5760 pg/mL | IL-1β secretion, LPS treated monocytes, at 10 µM: 6710 pg/mL | IL-1β secretion, LPS treated monocytes, at 100 µM: 8140 pg/mL | IL-9 secretion, CD8 T cells, at 0 µM: 1350 pg/mL | IL-9 secretion, CD8 T cells, at 0.0001 µM: 918 pg/mL | IL-9 secretion, CD8 T cells, at 0.001 µM: 998 pg/mL | IL-9 secretion, CD8 T cells, at 0.01 µM: 1070 pg/mL | IL-9 secretion, CD8 T cells, at 0.1 µM: 1230 pg/mL | IL-9 secretion, CD8 T cells, at 1 µM: 1610 pg/mL | IL-9 secretion, CD8 T cells, at 10 µM: 1730 pg/mL | IL-9 secretion, CD8 T cells, at 100 µM: 1880 pg/mL

B2: hIL10Ra_VHH14 - hIL2Rg_VHH19, No linker, tag his (bispecific antibody, not shown: small tags and cut ends)
chain: QVQLQESGGGSVQAGGSLRLSCGASGYTYSSYCMGWFRQVPGKEREGVAVIDSDGSTSYADSVKGRFTISKDNGKNTLYLQMNSLKPEDTAMYYCAADLGHYRPPCGVLYLGMDYWGKGTQVTVSSQVQLQESGGGSVQAGGSLRLSCTASGFTFDDREMNWYRQAPGNECELVSTISSDGSTYYADSVKGRFTISQDNAKNTVYLQMDSVKPEDTAVYYCAADFMIAIQAPGAGCWGQGTQVTVSS
Granzyme A secretion, CD8 T cells, at 0 µM: 25200 pg/mL | Granzyme A secretion, CD8 T cells, at 0.0001 µM: 19700 pg/mL | Granzyme A secretion, CD8 T cells, at 0.001 µM: 22300 pg/mL | Granzyme A secretion, CD8 T cells, at 0.01 µM: 22200 pg/mL | Granzyme A secretion, CD8 T cells, at 0.1 µM: 22900 pg/mL | Granzyme A secretion, CD8 T cells, at 1 µM: 24400 pg/mL | Granzyme A secretion, CD8 T cells, at 10 µM: 26000 pg/mL | Granzyme A secretion, CD8 T cells, at 100 µM: 27500 pg/mL | Granzyme B secretion, CD8 T cells, at 0 µM: 77700 pg/mL | Granzyme B secretion, CD8 T cells, at 0.0001 µM: 49300 pg/mL | Granzyme B secretion, CD8 T cells, at 0.001 µM: 47300 pg/mL | Granzyme B secretion, CD8 T cells, at 0.01 µM: 44200 pg/mL | Granzyme B secretion, CD8 T cells, at 0.1 µM: 54800 pg/mL | Granzyme B secretion, CD8 T cells, at 1 µM: 56300 pg/mL | Granzyme B secretion, CD8 T cells, at 10 µM: 67100 pg/mL | Granzyme B secretion, CD8 T cells, at 100 µM: 74300 pg/mL | IFNγ secretion, CD8 T cells, at 0 µM: 122000 pg/mL | IFNγ secretion, CD8 T cells, at 0.0001 µM: 102000 pg/mL | IFNγ secretion, CD8 T cells, at 0.001 µM: 104000 pg/mL | IFNγ secretion, CD8 T cells, at 0.01 µM: 111000 pg/mL | IFNγ secretion, CD8 T cells, at 0.1 µM: 111000 pg/mL | IFNγ secretion, CD8 T cells, at 1 µM: 123000 pg/mL | IFNγ secretion, CD8 T cells, at 10 µM: 131000 pg/mL | IFNγ secretion, CD8 T cells, at 100 µM: 134000 pg/mL | IL-1β secretion, LPS treated monocytes, at 0 µM: 6240 pg/mL | IL-1β secretion, LPS treated monocytes, at 0 µM (LPS only): 6880 pg/mL | IL-1β secretion, LPS treated monocytes, at 0.0001 µM: 5540 pg/mL | IL-1β secretion, LPS treated monocytes, at 0.001 µM: 5550 pg/mL | IL-1β secretion, LPS treated monocytes, at 0.01 µM: 5370 pg/mL | IL-1β secretion, LPS treated monocytes, at 0.1 µM: 5290 pg/mL | IL-1β secretion, LPS treated monocytes, at 1 µM: 5800 pg/mL | IL-1β secretion, LPS treated monocytes, at 10 µM: 5790 pg/mL | IL-1β secretion, LPS treated monocytes, at 100 µM: 7100 pg/mL | IL-9 secretion, CD8 T cells, at 0 µM: 1350 pg/mL | IL-9 secretion, CD8 T cells, at 0.0001 µM: 933 pg/mL | IL-9 secretion, CD8 T cells, at 0.001 µM: 1120 pg/mL | IL-9 secretion, CD8 T cells, at 0.01 µM: 1140 pg/mL | IL-9 secretion, CD8 T cells, at 0.1 µM: 1070 pg/mL | IL-9 secretion, CD8 T cells, at 1 µM: 1220 pg/mL | IL-9 secretion, CD8 T cells, at 10 µM: 1440 pg/mL | IL-9 secretion, CD8 T cells, at 100 µM: 1670 pg/mL

B3: hIL10Ra_VHH14 - hIL2Rg_VHH19, linker GGSGGS, tag his (bispecific antibody, not shown: small tags and cut ends)
chain: QVQLQESGGGSVQAGGSLRLSCGASGYTYSSYCMGWFRQVPGKEREGVAVIDSDGSTSYADSVKGRFTISKDNGKNTLYLQMNSLKPEDTAMYYCAADLGHYRPPCGVLYLGMDYWGKGTQVTVSSGGSGGSQVQLQESGGGSVQAGGSLRLSCTASGFTFDDREMNWYRQAPGNECELVSTISSDGSTYYADSVKGRFTISQDNAKNTVYLQMDSVKPEDTAVYYCAADFMIAIQAPGAGCWGQGTQVTVSS
Granzyme A secretion, CD8 T cells, at 0 µM: 25200 pg/mL | Granzyme A secretion, CD8 T cells, at 0.0001 µM: 20800 pg/mL | Granzyme A secretion, CD8 T cells, at 0.001 µM: 23000 pg/mL | Granzyme A secretion, CD8 T cells, at 0.01 µM: 25300 pg/mL | Granzyme A secretion, CD8 T cells, at 0.1 µM: 27100 pg/mL | Granzyme A secretion, CD8 T cells, at 1 µM: 28700 pg/mL | Granzyme A secretion, CD8 T cells, at 10 µM: 29400 pg/mL | Granzyme A secretion, CD8 T cells, at 100 µM: 25600 pg/mL | Granzyme B secretion, CD8 T cells, at 0 µM: 77700 pg/mL | Granzyme B secretion, CD8 T cells, at 0.0001 µM: 54500 pg/mL | Granzyme B secretion, CD8 T cells, at 0.001 µM: 50900 pg/mL | Granzyme B secretion, CD8 T cells, at 0.01 µM: 54100 pg/mL | Granzyme B secretion, CD8 T cells, at 0.1 µM: 62300 pg/mL | Granzyme B secretion, CD8 T cells, at 1 µM: 77600 pg/mL | Granzyme B secretion, CD8 T cells, at 10 µM: 90000 pg/mL | Granzyme B secretion, CD8 T cells, at 100 µM: 77900 pg/mL | IFNγ secretion, CD8 T cells, at 0 µM: 122000 pg/mL | IFNγ secretion, CD8 T cells, at 0.0001 µM: 94700 pg/mL | IFNγ secretion, CD8 T cells, at 0.001 µM: 110000 pg/mL | IFNγ secretion, CD8 T cells, at 0.01 µM: 117000 pg/mL | IFNγ secretion, CD8 T cells, at 0.1 µM: 122000 pg/mL | IFNγ secretion, CD8 T cells, at 1 µM: 144000 pg/mL | IFNγ secretion, CD8 T cells, at 10 µM: 149000 pg/mL | IFNγ secretion, CD8 T cells, at 100 µM: 127000 pg/mL | IL-1β secretion, LPS treated monocytes, at 0 µM: 6240 pg/mL | IL-1β secretion, LPS treated monocytes, at 0 µM (LPS only): 6880 pg/mL | IL-1β secretion, LPS treated monocytes, at 0.0001 µM: 6290 pg/mL | IL-1β secretion, LPS treated monocytes, at 0.001 µM: 5850 pg/mL | IL-1β secretion, LPS treated monocytes, at 0.01 µM: 6100 pg/mL | IL-1β secretion, LPS treated monocytes, at 0.1 µM: 4960 pg/mL | IL-1β secretion, LPS treated monocytes, at 1 µM: 5780 pg/mL | IL-1β secretion, LPS treated monocytes, at 10 µM: 6420 pg/mL | IL-1β secretion, LPS treated monocytes, at 100 µM: 7840 pg/mL | IL-9 secretion, CD8 T cells, at 0 µM: 1350 pg/mL | IL-9 secretion, CD8 T cells, at 0.0001 µM: 951 pg/mL | IL-9 secretion, CD8 T cells, at 0.001 µM: 1010 pg/mL | IL-9 secretion, CD8 T cells, at 0.01 µM: 1140 pg/mL | IL-9 secretion, CD8 T cells, at 0.1 µM: 1090 pg/mL | IL-9 secretion, CD8 T cells, at 1 µM: 1440 pg/mL | IL-9 secretion, CD8 T cells, at 10 µM: 1600 pg/mL | IL-9 secretion, CD8 T cells, at 100 µM: 1700 pg/mL
